These results are taken from US20130236462A1 (Sanofi, published 2013).

Substitutions are numbered along the chain they refer to. Numbers in names are those of the source. Read-outs that look alike come from different tables or passages of the source.

Assay [1] has as its target T1, recombinant human IL-13 (human, UniProt P35225 35-146, limits assumed). As to the kind of experiment: SPR Biacore 3000, antibody captured, cytokine in solution. From the text:
(§1) Surface plasmon resonance technology on a Biacore 3000 (GE Healthcare) was used for detailed kinetic characterisation of purified anibodics. A capture assay using a species specific antibody (e.g. human-Fc specific MAB 1302, Chemicon) for capture and orientation of the investigated antibodies was used. The capture antibody was immobilized via primary amine groups (10000 RU) on a research grade CM5 chip (GE Life Sciences) using standard procedures. The analysed antibody was captured with an adjusted RU value that would result in maximal analyte binding of 30 RU at a flow rate of 10 μl/min. Binding kinetics were measured against recombinant human IL-4 and IL-13 over a concentration range between 0 to 50 nM in HBS EP (10 mM HEPES pH 7.4, 150 mM NaCl, 3 mM EDTA, 0.005% Surfactant P20) at a flow rate of 30 μl/min. Chip surfaces were regenerated with 10 mM glycine pH2.5. Kinetic parameters were analysed and calculated in the BIAevaluation program package using a flow cell without captured antibody as reference. To investigate additive binding of both antigens, a wizard-driven co-inject method has been applied in which one antigen was injected immediately followed by the antigen mix of IL-13/IL-4.

The target of assay [2] is T1, recombinant human IL-13. The experiment in a line: cell-based or functional assay.
The target of assay [3] is T1, recombinant human IL-13. As to the kind of experiment: SPR Biacore 3000, ratio of KD.
Source text: as §1
Background: In SPR one partner is held on a chip, and binding of the other changes the refractive index at the surface.

Assay [4] deals with T2, recombinant human IL-4 (human, UniProt P05112 25-153).
T2 construct: Bought reagent
T2 sequence (looked up): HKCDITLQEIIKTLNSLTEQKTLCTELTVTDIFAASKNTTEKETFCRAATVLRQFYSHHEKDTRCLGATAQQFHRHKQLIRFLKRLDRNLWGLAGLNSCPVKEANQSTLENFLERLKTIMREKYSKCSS
The experiment in a line: SPR Biacore 3000, antibody captured, cytokine in solution.
Source text: as §1
Binding and neutralization activity assays were performed as described in the previous Examples.

The target in assay [5] is human IL-13 R112Q variant (human) (UniProt P35225). The description is as above.
human IL-13 R112Q variant (human), sequence (P35225 33-146, stated change not applied): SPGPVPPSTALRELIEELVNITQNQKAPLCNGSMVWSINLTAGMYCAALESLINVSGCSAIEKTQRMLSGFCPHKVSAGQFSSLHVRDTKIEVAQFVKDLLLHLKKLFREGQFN
For assay [6], the target named is T2, recombinant human IL-4. As to the kind of experiment: cell-based or functional assay.
Assay [7] addresses T2, recombinant human IL-4. The experiment in a line: SPR Biacore 3000, antibody captured, cytokine in solution.
Source text: as §1
The source holds these as a separate data set.

For assay [8], the target named is T2, recombinant human IL-4. The experiment in a line: SPR Biacore 3000, ratio of KD.
Source text: as §1

Assay [9] concerns the target T2, recombinant human IL-4. The experiment in a line: cell-based or functional assay. The source holds these as a separate data set.

T1 sequence (P35225 35-146 limits assumed): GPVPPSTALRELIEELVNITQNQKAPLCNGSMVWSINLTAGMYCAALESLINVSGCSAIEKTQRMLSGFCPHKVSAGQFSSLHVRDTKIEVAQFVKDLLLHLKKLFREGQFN

The term Kd denotes the free concentration of one partner at which half of the binding sites on the other are occupied at equilibrium, for simple one-to-one binding. In general, koff refers to a measure of how fast the partners let go of each other. In general, kon refers to the rate constant with which the complex forms. With “mouse anti-IL-13 monoclonal antibody clone B-B13”, in the assay with recombinant human IL-13 [1], the Kd came out at 0.563 nM, the koff amounted to 0.000373 s⁻¹ and the kon turned out to be 864000 M⁻¹ s⁻¹.

As for “chimeric anti-IL-13 clone B-B13 monoclonal antibody”, in the assay with recombinant human IL-13 [1], the Kd was 0.261 nM, the koff stood at 0.000461 s⁻¹ and the kon came out at 1.76e+06 M⁻¹ s⁻¹. Moreover, the IC50, inhibition of IL-13 induced TF-1 cell proliferation in the assay with recombinant human IL-13 [2] worked out at 7.4 nM.

B1: huB-B13 VL2 × VH2 (antibody, V domains shown)
VH: EVQLKESGPGLVAPGGSLSITCTVSGFSLTDSSINWVRQPPGKGLEWLGMIWGDGRIDYADALKSRLSISKDSSKSQVFLEMTSLRTDDTATYYCARDGYFPYAMDFWGQGTSVTVSS
VL: DIVLTQSPASLAVSLGQRATISCRASESVDSYGNSYMHWYQQKAGQPPKLLIYLASNLESGVPARFSGSGSRTDFTLTIDPVQAEDAATYYCQQNNEDSRTFGGGTKLEIK
notes: Expressed as a whole antibody, purified on Protein A; also called humanized B-B13 VL2xVH2
On to B1, for which, in the assay with recombinant human IL-13 [1], the Kd is 0.157 nM, the koff was found to be 0.000177 s⁻¹ and the kon amounted to 1.13e+06 M⁻¹ s⁻¹.

B2: huB-B13 VL3 × VH2 (antibody, V domains shown)
VH: B1 VH
VL: B1 VL with N34Q, N96A
notes: Expressed as a whole antibody, purified on Protein A; also called huB-B13 VL3xVH2; humanized B-B13 VL3xVH2
Take B2: in the assay with recombinant human IL-13 [1], the Kd is 0.0439 nM, the koff was determined as 0.000112 s⁻¹ and the kon was 2.55e+06 M⁻¹ s⁻¹. Besides, in the assay with recombinant human IL-13 [3], the “fold higher affinity than chimeric B-B13” value worked out at 6 fold and the “fold higher affinity than the original murine B-B13” value was 13 fold. Moreover, the “IC50, inhibition of IL-13 induced TF-1 cell proliferation” value with recombinant human IL-13 [2] was 3.2 nM.

B3: huB-B13 VL3 × VH3 (antibody, V domains shown)
VH: B1 VH with Y100R, D106K
VL: B1 VL with N34Q, N96A
notes: Expressed as a whole antibody, purified on Protein A; also called humanized B-B13 VL3xVH3
Turning to B3, in the assay with recombinant human IL-13 [1], the Kd was 0.189 nM, the koff amounted to 0.000405 s⁻¹ and the kon amounted to 2.14e+06 M⁻¹ s⁻¹.

B4: huB-B13 VL1 × VH1 (antibody, V domains shown)
VH: B1 VH with A60N, S73N, T83N
VL: B1 VL with S99P
notes: Expressed as a whole antibody, purified on Protein A; also called humanized B-B13 VL1xVH1
On to B4, for which, in the assay with recombinant human IL-13 [1], the Kd worked out at 0.396 nM, the koff was 0.000691 s⁻¹ and the kon came out at 1.74e+06 M⁻¹ s⁻¹. Further, the “IC50, inhibition of IL-13 induced TF-1 cell proliferation” value with recombinant human IL-13 [2] turned out to be 15.7 nM.

B5: huB-B13 VL3 × VH1 (antibody, V domains shown)
VH: B1 VH with A60N, S73N, T83N
VL: B1 VL with N34Q, N96A
notes: Expressed as a whole antibody, purified on Protein A; also called humanized B-B13 VL3xVH1
Regarding B5, in the assay with recombinant human IL-13 [1], the Kd turned out to be 0.172 nM, the koff turned out to be 0.000333 s⁻¹ and the kon stood at 1.93e+06 M⁻¹ s⁻¹. Further, the “IC50, inhibition of IL-13 induced TF-1 cell proliferation” value with recombinant human IL-13 [2] came out at 5.2 nM.

B6: huB-B13 VL1 × VH3 (antibody, V domains shown)
VH: B1 VH with Y100R, D106K
VL: B1 VL with S99P
notes: Expressed as a whole antibody, purified on Protein A; also called humanized B-B13 VL1xVH3
Turning to B6, in the assay with recombinant human IL-13 [1], the Kd was determined as 0.205 nM, the koff amounted to 0.000395 s⁻¹ and the kon came out at 1.93e+06 M⁻¹ s⁻¹.

B7: huTBTI3_1_1 (bispecific antibody, IgG4)
VH: EVQLKESGPGLVAPGGSLSITCTVSGFSLTDSSINWVRQPPGKGLEWLGMIWGDGRIDYADALKSRLSISKDSSKSQVFLEMTSLRTDDTATYYCARDGYFPYAMDFWGQGTSVTVSSGGGGSGGGGSQVQLQQSGPELVKPGASVKISCKASGYSFTSYWIHWIKQRPGQGLEWIGMIDASDGETRLNQRFQGRATLTVDESTSTAYMQLRSPTSEDSAVYYCTRLKEYGNYDSFYFDVWGAGTLVTVSS
VL: DIVLTQSPASLAVSLGQRATISCRASESVDSYGQSYMHWYQQKAGQPPKLLIYLASNLESGVPARFSGSGSRTDFTLTIDPVQAEDAATYYCQQNAEDSRTFGGGTKLEIKGGGGSGGGGSDIQMTQSPASLSVSVGDTITLTCHASQNIDVWLSWFQQKPGNIPKLLIYKASNLHTGVPSRFSGSGSGTGFTLTISSLQPEDIATYYCQQAHSYPFTFGGGTKLEIK
notes: Dual variable domain IgG4: B-B13 VL3 × VH2 outer, 8D4-8 VL1 × VH2 inner, (G4S)2 linkers; heterotetramer of two heavy and two light chains; copies: 2 + 2
Regarding B7, in the assay with recombinant human IL-4 [4], the Kd is 0.148 nM, the koff was 0.000378 s⁻¹ and the kon is 2.55e+06 M⁻¹ s⁻¹. For the same molecule, in assay [5], the Kd was determined as 0.121 nM, the koff was 0.000118 s⁻¹ and the kon was 974000 M⁻¹ s⁻¹. Besides, the “IC50 (nM) in IL-4 assay (TF-1 cell proliferation)” value with recombinant human IL-4 [6] worked out at 1.7 nM.

B8: huTBTI3_2_2 (bispecific antibody, IgG4)
VH: B7 VH with A181P
VL: B7 VL with Q34N, A96N
notes: Dual variable domain IgG4: B-B13 VL2 × VH2 outer, 8D4-8 VL1 × VH1 inner, (G4S)2 linkers; heterotetramer of two heavy and two light chains; copies: 2 + 2
On to B8, for which, in the assay with recombinant human IL-4 [4], the Kd stood at 0.0332 nM, the koff came to 0.000132 s⁻¹ and the kon came out at 3.96e+06 M⁻¹ s⁻¹.

B9: huTBTI3_1_2 (bispecific antibody, IgG4)
VH: B7 VH
VL: B7 VL with Q34N, A96N
notes: Dual variable domain IgG4: B-B13 VL2 × VH2 outer, 8D4-8 VL1 × VH2 inner, (G4S)2 linkers; heterotetramer of two heavy and two light chains; copies: 2 + 2
Turning to B9, in the assay with recombinant human IL-4 [4], the Kd stood at 0.138 nM, the koff was 0.000308 s⁻¹ and the kon came out at 2.23e+06 M⁻¹ s⁻¹.

B10: huTBTI3_2_1 (bispecific antibody, IgG4)
VH: B7 VH with A181P
VL: B7 VL
notes: Dual variable domain IgG4: B-B13 VL3 × VH2 outer, 8D4-8 VL1 × VH1 inner, (G4S)2 linkers; heterotetramer of two heavy and two light chains; copies: 2 + 2
On to B10, for which, in the assay with recombinant human IL-4 [4], the Kd was found to be 0.0347 nM, the koff is 0.000139 s⁻¹ and the kon amounted to 4e+06 M⁻¹ s⁻¹. In [5], this molecule gave a Kd of 0.211 nM, a koff of 0.0002 s⁻¹ and a kon of 948000 M⁻¹ s⁻¹. Further, the “IC50 (nM) in IL-4 assay (TF-1 cell proliferation)” value with recombinant human IL-4 [6] stood at 0.32 nM.

B11: Hu8D4-8 VL1 × VH1 (antibody, V domains shown)
VH: QVQLQQSGPELVKPGASVKISCKASGYSFTSYWIHWIKQRPGQGLEWIGMIDPSDGETRLNQRFQGRATLTVDESTSTAYMQLRSPTSEDSAVYYCTRLKEYGNYDSFYFDVWGAGTLVTVSS
VL: DIQMTQSPASLSVSVGDTITLTCHASQNIDVWLSWFQQKPGNIPKLLIYKASNLHTGVPSRFSGSGSGTGFTLTISSLQPEDIATYYCQQAHSYPFTFGGGTKLEIKR
notes: Expressed as a whole antibody, purified on Protein A; also called hu8D4-8 VL1xVH1; humanized 8D4-8 VL1xVH1
As to B11, in the assay with recombinant human IL-4 [7], the Kd turned out to be 0.00329 nM, the koff is 0.000155 s⁻¹ and the kon was 4.72e+07 M⁻¹ s⁻¹. In addition, in the assay with recombinant human IL-4 [8], the “fold higher affinity than chimeric 8D4-8” value was determined as 2 fold and the “fold higher affinity than the original murine 8D4-8” value came out at 11 fold. The “IC50, inhibition of IL-4 induced TF-1 cell proliferation” value with recombinant human IL-4 [9] came to 41 pM.

B12: chimeric anti-IL-4 clone 8D4-8 monoclonal antibody (antibody, V domains shown)
VH: B11 VH with E10Q, K13R, A16T, Q65K, G66D, E74R, T76S, V93L, L118T
VL: DIQMNQSPASLSVSLGDTITLTCHASQNIDVWLSWFQQSPGNIPKLLIYKASNLHTGVPSRFSGSGSGTGFTLTISSLQPEDIATYYCQQAHSYPFTFGGGTKLEIK
notes: Murine variable domains fused to IGHG1 and IGKC; also called ch8D4-8 WT; chimeric 8D4-8
For the molecule B12, in the assay with recombinant human IL-4 [7], the Kd was 0.00783 nM, the dissociation rate constant (koff) worked out at 0.000195 s⁻¹ and the kon was determined as 2.49e+07 M⁻¹ s⁻¹. Besides, the “IC50, inhibition of IL-4 induced TF-1 cell proliferation” value with recombinant human IL-4 [9] came to 84 pM.

B13: Hu8D4-8 VL1 × VH2 (antibody, V domains shown)
VH: B11 VH with P53A
VL: B11 VL
notes: Expressed as a whole antibody, purified on Protein A; also called humanized 8D4-8 VL1xVH2
Turning to B13, in the assay with recombinant human IL-4 [7], the Kd was 0.0139 nM, the koff is 0.000348 s⁻¹ and the kon was 2.57e+07 M⁻¹ s⁻¹. The “IC50, inhibition of IL-4 induced TF-1 cell proliferation” value in the assay with recombinant human IL-4 [9] came to 135 pM.

B14: mouse anti-IL-4 monoclonal antibody clone 8D4-8 (antibody, V domains shown)
VH: B11 VH with E10Q, K13R, A16T, Q65K, G66D, E74R, T76S, V93L, L118T
VL: B11 VL with T5N, V15L, K39S
notes: Bought mouse monoclonal antibody (Biozol / BioLegend); also called murine 8D4-8
Take B14: in the assay with recombinant human IL-4 [7], the dissociation constant Kd was determined as 0.0377 nM, the koff stood at 0.000217 s⁻¹ and the kon was 5.57e+06 M⁻¹ s⁻¹. Moreover, in the assay with recombinant human IL-4 [9], the “IC50, inhibition of IL-4 induced TF-1 cell proliferation” value turned out to be 97 pM.
